Laboratory results: publication PMC7497161
*1 amine or outer side, *2 acyl side, *3 side chain or, on linkers, in order; H or OH if unused. Where no end group is shown, it is not given here. [ ]: non-standard residue; d: D form. Dap(Dnp) = diaminopropionic acid carrying a 2,4-dinitrophenyl quencher, O=C([C@H](CNc1ccc([N+](=O)[O-])cc1[N+](=O)[O-])N[*:1])[*:2]; 2Abz = Nc1ccccc1C(=O)O

molecular target: circularly permuted Caspase-2 double mutant Asp323Thr/His226Ala (human) (UniProt P42575)
UniProt P42575, sequence (P42575 whole entry H226A/D323T): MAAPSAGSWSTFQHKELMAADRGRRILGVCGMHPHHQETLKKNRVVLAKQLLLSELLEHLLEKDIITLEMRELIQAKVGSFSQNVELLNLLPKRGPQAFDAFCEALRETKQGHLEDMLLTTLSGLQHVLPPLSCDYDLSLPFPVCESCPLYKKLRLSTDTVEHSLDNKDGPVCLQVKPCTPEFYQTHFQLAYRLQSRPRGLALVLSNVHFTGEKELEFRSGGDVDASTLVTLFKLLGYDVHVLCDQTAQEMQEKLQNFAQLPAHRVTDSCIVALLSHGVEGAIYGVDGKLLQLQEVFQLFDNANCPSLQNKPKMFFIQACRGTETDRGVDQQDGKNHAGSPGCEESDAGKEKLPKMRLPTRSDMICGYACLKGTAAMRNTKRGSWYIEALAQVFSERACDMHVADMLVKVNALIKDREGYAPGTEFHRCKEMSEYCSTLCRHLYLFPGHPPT

In order of falling K M (Michaelis-Menten kinetics, FRET peptide-based cleavage assay, 1 μM enzyme):
1. [2Abz]VDVADLA-{Dap(Dnp)} [Abz-VDVAD-LA-Dap(Dnp)]  193 µM
2. [2Abz]VDVADTA-{Dap(Dnp)} [Abz-VDVAD-TA-Dap(Dnp)]  82 µM
3. [2Abz]VDVADVA-{Dap(Dnp)} [Abz-VDVAD-VA-Dap(Dnp)]  77 µM
4. [2Abz]VDVADAA-{Dap(Dnp)} [Abz-VDVAD-AA-Dap(Dnp)]  57 µM
5. [2Abz]VDVADGA-{Dap(Dnp)} [Abz-VDVAD-GA-Dap(Dnp)]  55 µM
6. [2Abz]VDVADPA-{Dap(Dnp)} [Abz-VDVAD-PA-Dap(Dnp)]  43 µM
